Experimental data as given in IntAct's records for PubMed 18052611.

B1: Protein matrimony (Drosophila melanogaster (Fruit fly)), Q23973 (parent)
chain: MENSRTPTNKTKITLNRTPTLKERRWNTLKVNTSNVRCSTPIFGNFRSPNLSPIENMGTKGKSPVSPMRFATFKKVPTKVHPKQQQQQQHQHCHRTQLKPPPFVLPKPQEEIIEPEREIKSCSSPDTCSDDSNMETSLALESRRRSIKASNHSYVVNHAANVEQILMHMGLENYVTNFEEAHIDLVELASLERADLVKIGLNTDEDCNRIMDVLHTL
partner: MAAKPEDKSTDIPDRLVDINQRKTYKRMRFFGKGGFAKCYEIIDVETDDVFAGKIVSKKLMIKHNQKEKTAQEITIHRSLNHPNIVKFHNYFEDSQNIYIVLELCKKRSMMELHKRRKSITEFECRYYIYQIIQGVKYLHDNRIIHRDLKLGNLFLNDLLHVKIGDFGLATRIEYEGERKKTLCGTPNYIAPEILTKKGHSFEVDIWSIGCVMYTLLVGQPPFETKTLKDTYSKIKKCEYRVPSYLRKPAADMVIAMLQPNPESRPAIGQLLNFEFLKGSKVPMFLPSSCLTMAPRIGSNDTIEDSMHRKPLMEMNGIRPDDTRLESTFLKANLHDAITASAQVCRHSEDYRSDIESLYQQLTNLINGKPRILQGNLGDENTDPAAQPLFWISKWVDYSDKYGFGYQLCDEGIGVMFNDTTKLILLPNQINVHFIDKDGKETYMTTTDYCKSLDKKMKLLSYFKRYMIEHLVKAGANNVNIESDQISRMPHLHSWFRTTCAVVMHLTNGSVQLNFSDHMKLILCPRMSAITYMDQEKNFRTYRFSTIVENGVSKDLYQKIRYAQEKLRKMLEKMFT

Variants of: B1
Conditions: with polo_drome polo

Row | effect of a mutation on the interaction | Variant
1 | disrupting interaction | MENSRTPTNKTKITLNRTPTLKERRWNTLKVNTSNVRCSAPIFGNFRSPNLSPIENMGTKGKSPVSPMRFATFKKVPTKVHPKQQQQQQHQHCHRTQLKPPPFVLPKPQEEIIEPEREIKSCSSPDTCSDDSNMETSLALESRRRSIKASNHSYVVNHAANVEQILMHMGLENYVTNFEEAHIDLVELASLERADLVKIGLNTDEDCNRIMDVLHTL [T40A]
